Test results as given in the DeepSol protein solubility set.

Test: soluble on expression in E. coli; label from the status in PepcDB or PDB records

Sequence	soluble on expression in E. coli
MNNRIIYVVSDSVGETAELVVKAALSQFNGSADDTHVRRIPYVEDIGTINEVISLAKADGGIICFTLVVPEIREYLIAEAEKANVLYYDIIGPLIDKMETAYGLTAKYEPGRVRQLDEDYFKKVEAIEFAVKYDDGRDPRGILKADIVLIGVSRTSKTPLSQYLAHKRLKVANVPIVPEVDPPEELFNVDPKKCIGLKISPDKLNHIRKERLKSLGLNDKAIYANINRIKEELEYFEKIVDRIGCQVVDVSNKAVEETANIIHHLKTKNIAAALEHHHHHH	not soluble
MSLDLQLYLSNLANQIDRETGIGDVPLVILLDDLSEAGSISELVNGALTCKYHKPYIIGTTNQPVKMTPNHGLHLSFRRMLTFSNNVEPANGFLVRYLRRKLVESDSDINANKEELLRVLDWVPKLWYHLHTFLEKHSTSDFLIGGPCFFLSCPIGIEDFRTWFIDLWNNSIIPYLQEGAKDGIKVHGQKAAWEDPVEWVRDTLPWPSAQQDDSTPSSLDSDPLMAMLLKLQEAANYIESPDRETILDPNLQATLEGHHHHHH	soluble
MVESLKHTAAAAIAKLIHNGHFNSKSYAFDQESSNEVYAQLLRLDPQWSYNIDLKLKGLSFILTKVNFENVEMGPQTFGLLTQHNLKSLVLGNQDEIPSLEHYMSRLFRTSQIDHLDLSGRSQFSTAWLKTTGQQLPLLRTLNVSGVKLLNPDFFQFCKSFPNLYSLDISNCGVTILTGISRLKNLRHLSLRSLIYESWYDIRELFALKLLNVLDLSMHSTHHARRNMQRFLDCKQVLPELRFLECSGNLMDEDMLEELLITHSHLHQLAIVDCDVKAPKSSPIRILSCTTFDSSITALKYYLNLKRRNEVQICFQELRLHVKRLHERKMQYDVTECVTLSLQSLEKLPCSLIMNFDIVEERLFTSRLSFEADFLAEIVLHNFHRLSRVHTRLICDILLNNVNRQLIRDLRAETMWNAIIYLFNMGVFVDKQKLKGIASHCAASLHNGDPIIEEQAMRILTSCVTGKTLELVLSITESKHDTTPICLGFLRAALHKEDEQSSRRVAEKILAATHNNEEECKRYIKHGAMNMLISAIDRFDSEPMHIVILGIIRNLVMMSPYDKVQQIFTCVQFRTFQILLRNWTSSDRAYLMLSIFALRLNHQDKNFECVFRKCADELLRKHFPYLLATEITVDVDIYFDRGIVQNILRTSEEVGLVLWALLTIKIYAQKSLWNSRSIRDSNFFYLIENPHIASEVVNVASENVRFLFHW	not soluble
MAHHHHHHSLIDGLLITELNKLTPGSSYIFLDYDGTLVPIIMNPEQSLADPELIEMLTELRSKYKLFIVSGRSPEEIKRFIPLDLNLICYHGACSIVNGKTYYYNNAQSFLGIFNEIYQSSLNLVNEFPGLRIYKKNLAVLYHFGLMKPQDVPALERVIVEISQKEHVDVYKGKMIFELRVPGVNKGIAIKNVRDEETALIAGDDATDECSFKYNEDAITIKVGPGKTSAHFRVNDYSEMREVLKLLLNNAEKRSEG	soluble
MVAYSPIIATYGNRAEQFLETDSDFAKYHAKLNKKLQHLRSRCHLVTKDTKKYSSKNKYGEINSEDYDNKTKLIGVLILLHAERDLALAETLKLRARQRGKLKKSEEKVLSTRLKKACKTADKLVNVTQNEQQWITRAQYLAFAKLVHSEYLINGKRFKRKDNAKISNNLALVFAALEHLKNLSLLAEEVVDNIVNKYQYSLKQYAGNLITTPEINNFIVERVQSDENKDDELVKLLLDNGFNMKKITTSTEDQKVTTNINWRSFNAKIIDAEVAQFLEQGLSIHPTQITQYTQRLSKLEKALDRHEFFIANHDDQDDIDEMVENSSENNQIILAYIKYNILLTSISRERDLFTHLWNQWLKLNTSLPSKLTKYKEMERIVKNLTKYLSDIMELPGVYSDDELLSQLDLCKLYFQLFLNTGCLSVLYQSKGRYMEALALYVDAYRRLENKLSEIESLDEILLPANLLSLNSVRSLQKRIENGGNSVITLAEYEKRNHGGSLGKYDLTVIEKLDSKKILPTDIQLKNLFPLKPKMLPIPSKPTLFDLAFNYITYDKQEPSASQVKDSVTETESISQTPISNEQTEGEPKKKRGFLGLFGR	not soluble
MHAEKDLITKETTQPVPPPAAVVTHQPITKRYDPPISISPPPQRNNYSHVKVTVDSDTSPRQQAFIDDIVAKGGKLAVVTYDRGGQNTKELTVHKGEYLEVIFDERNWWECKNMHQRVGYVPHTILSMVPFEQQQYASPNHHNNSSSTGGYNNGHHQGPGMLPEDAPSYVKERQGKRGEFRYF	not soluble
MGSDKIHHHHHHMFWKKDPTVSWERKNINDIDFSRFNVAIIGGTGGLGRAISRELAQRNARVTVVGQTFRDEDLKDKINFVKADLSLVSECKRISHSDEIPYEELTHLIFTTGIFASRQRQATSEGLEKDMAVSYLSRYIIFHDVAKRLGISRTKKDDLPKVFIAGFPGNGQVGDPDDLNSDEKKYSAYATHMNTVAANESLVIDAKDRYTNIDTFGLNPGLIKTNIRNNLLGSDTYLSRITEWIISWTCQSAETYAKTICTLIASPAIESRSGTMFSNKGDAILPSPGLTKDVVEKFMENSELLVEKALRNQSPFTSSNE	not soluble
MSGAFNNDGRGISPLIATSWERCNKLMKRETWNVPHQAQGVTFASIYRRKKAMLTLGQAALEDAWEYMAPRECALFILDETACILSRNGDPQTLQQLSALGFNDGTYCAEGIIGTCALSLAAISGQAVKTMADQHFKQVLWNWAFCATPLFDSKGRLTGTIALACPVEQTTAADLPLTLAIAREVGNLLLTDSLLAETNRHLNQLNALLESMDDGVISWDEQGNLQFINAQAARVLRLDATASQGRAITELLTLPAVLQQAIKQAHPLKHVEATFESQHQFIDAVITLKPIIETQGTSFILLLHPVEQMRQLMTSQLGKVSHTFAHMPQDDPQTRRLIHFGRQAARSSFPVLLCGEEGVGKALLSQAIHNESERAAGPYIAVNCELYGDAALAEEFIGGDRTDNENGRLSRLELAHGGTLFLEKIEYLAVELQSALLQVIKQGVITRLDARRLIPIDVKVIATTTADLAMLVEQNRFSRQLYYALHAFEITIPPLRMRRGSIPALVNNKLRSLEKRFSTRLKIDDDALARLVSCAWPGNDFELYSVIENLALSSDNGRIRVSDLPEHLFTEQATDDVSATRLSTSLSFAEVEKEAIINAAQVTGGRIQEMSALLGIGRTTLWRKMKQHGIDAGQFKRRV	soluble
INQYNQKKSQEYTDMQLLLQKESDFAQYYEMILSQSENQSILIHDIKKHLQSIKLLNEKNDSDKINAYIQQLLESSDLKETSKICDNEMLNAILCRYQRQCNEKHIVFHTDIRSDTVQNIYQHDLTSLFCNLLDNALESADNIPDSFIELTVEKKENSPFIIIILINSCRSTPVYDQDGLPVSHKANKGRHGFGIKSIKKVVKQYHGNLQMYYDNDSGTFHTIITLKQ	not soluble
AHHHHHHGSGKTGIEYFDNFILKDGFPDGSLILVAGEPGAGKTIFSATYLYNGAKKFGEKGVYISLAETKREFYEAMKQLGMDFEELEKKGLFRFIDLVTVSRGAIEKEIQFLMSEISSFQPKRVVIDSISVFAQILGLEKTRVFLHTMLGRFIKAYNATALLIAEKPMGSKTIGHGVEEFVVDGVIILKYKSLGEITRRVMEIPKMRRRSVERAEYEYVITKNGIEFLELPDLVRDKGEYTLEKITTGIEKLDKMLDGGYTRDQMF	soluble
HENPEGIIRIYASTTPGEHILPSIIKEYKSSYKNVDFEITITDSERCFKALDEGLADIAAVGYLKNKNYEYTIIGKDRLVLIVPPNHPLAEKGTAKLEDILKEDYIDREEGSGTREAFIKALNDKGYSIMDLNVVMRLGSHSAVI	not soluble
MATSKLQALWNHPAGPKTIHFWAPTFKWGISIANIADFQKPPENISYLQQIAVTCTGMIWCRCSTIITPKNWNLFSVNVAMAATGIYQLTRKIKYDYVSEAEAAVEIEG	not soluble
MAAKQGESDPERKETRQKVDDDRKHEIEAAIVRIMKSRKKMQHNVLVAEVTQQLKARFLPSPVVIKKRIEGLIEREYLARTPEDRKVYTYVA	soluble
RTVAQNASETTVSYDTDTAVLSEADVLRIALSENATVKVADMDVRKQEYARRAARADLFPKVDLNGVYSHTLKKQVLYIDMPGFSSSEGIEMGRTHNTQGGVNVSMPLVSAQLWKSIAMTGEQLDLALEKARSSRIDLVAEVKKAYLSVLLAEDSYGVFKRSYDNALANYKNISDKFDRGLVAEYDKIRANVQVRNIEPNLLQAQNSVALALWQLKVLMSMEVETPIRLSGSLSDYKEQVYTGYFAADTLISNNSSLRQLDIQRRLAVSADKLNKYSFLPTLNLGGQYTYSLNSNDIKFWGEGQR	not soluble
LAAQMEQTDIELLWKQLEQTPGAQVTVSLEERTVTCEGNVYPFFVDDYTRWRLMEGLDDVGLTLRKEAEIAAFEARRPSFKPVTQ	not soluble
